From article PMC5693944, “Ml proteins from Mesorhizobium loti and MucR from Brucella abortus: an AT-rich core DNA-target site and oligomerization ability” come the findings set out here.

One data set concerns the target T1, Ml2 (Mesorhizobium loti, UniProt A0A1A5JHX8 1-141).
T1 sequence: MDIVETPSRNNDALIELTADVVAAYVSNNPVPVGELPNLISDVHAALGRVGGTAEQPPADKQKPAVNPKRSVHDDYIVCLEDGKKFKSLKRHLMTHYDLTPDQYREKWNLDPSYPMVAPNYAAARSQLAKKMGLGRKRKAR
As to the kind of experiment: EMSA. Conditions: protein: recombinant; chain copies: 10. In general terms: In EMSA bound probe runs differently from free probe, usually more slowly.

The next data set has as its target MucR (Brucella abortus 2308, UniProt Q2YMR3 1-142). As to the kind of experiment: EMSA. Conditions: protein: recombinant; chain copies: 10; blunt.

B1: Exoy43bp (dsDNA)
DNA 1: CCACTGAAATAGTCGCGTCATGAATTGACTAAATAATAAGCTA
DNA 2: TAGCTTATTATTTAGTCAATTCATGACGCGACTATTTCAGTGG
With B1, the binding result with Ml2 and with MucR was “binds” each time.

B2: Seq3.1 (dsDNA)
DNA 1: ATTGACGCCCTAATAAGCTA
DNA 2: TAGCTTATTAGGGCGTCAAT
Regarding B2, the binding result in the data set with Ml2 and with MucR was “no binding” throughout.

B3: Seq1.2 (dsDNA)
DNA 1: CCACTGACCGCGTCGCGTCA
DNA 2: TGACGCGACGCGGTCAGTGG
On to B3, for which the binding result with Ml2 and in the data set with MucR was “no binding” throughout.

B4: Core1 (dsDNA)
DNA 1: GGCGCCGAAATAGCGGAGCG
DNA 2: CGCTCCGCTATTTCGGCGCC
Take B4: in the data set with Ml2, the binding result is “binds”.

B5: Seq3.2 (dsDNA)
DNA 1: ATTGACTAAAGCCGAAGCTA
DNA 2: TAGCTTCGGCTTTAGTCAAT
With B5, the binding result with Ml2 and with MucR was “no binding” in each case.

B6: Core4 (dsDNA)
DNA 1: GCGAAAAAAATAATTTTGCC
DNA 2: GGCAAAATTATTTTTTTCGC
With B6, in the data set with Ml2, the binding result was “binds”.

B7: Core4mut (dsDNA)
DNA 1: GCGAAAAAAAAAATTTTGCC
DNA 2: GGCAAAATTTTTTTTTTCGC
For B7, the binding result with Ml2 is “no binding”.

B8: Core2 (dsDNA)
DNA 1: GGCGCCGAAATAACGGAGCG
DNA 2: CGCTCCGTTATTTCGGCGCC
With B8, in the data set with Ml2, the binding result is “binds”.

B9: Core2mut (dsDNA)
DNA 1: GGCGCCGAAAAAACGGAGCG
DNA 2: CGCTCCGTTTTTTCGGCGCC
On to B9, for which the binding result with Ml2 is recorded as “no binding”.

B10: Core5 (dsDNA)
DNA 1: GGCGCCGATATATCGGAGCG
DNA 2: CGCTCCGATATATCGGCGCC
For the molecule B10, in the data set with Ml2, the binding result is on record as “binds”.

B11: Seq1.1 (dsDNA)
DNA 1: CCACGTCCCTAGTCGCGTCA
DNA 2: TGACGCGACTAGGGACGTGG
In the case of B11, the binding result with Ml2 and with MucR was “no binding” in each case.

B12: Core3 (dsDNA)
DNA 1: GGCGCCGAAATACCGGAGCG
DNA 2: CGCTCCGGTATTTCGGCGCC
Regarding B12, the binding result in the data set with Ml2 is reported as “binds”.
